The source of these data is patent publication US20230406961A1 (published 2023).

What all share (experiment): SPR (Biacore)
Background: In SPR one partner is held on a chip, and binding of the other changes the refractive index at the surface.

The target in one assay is T1, endoglin (CD105) (UniProt P17813 26-586).
T1 chain: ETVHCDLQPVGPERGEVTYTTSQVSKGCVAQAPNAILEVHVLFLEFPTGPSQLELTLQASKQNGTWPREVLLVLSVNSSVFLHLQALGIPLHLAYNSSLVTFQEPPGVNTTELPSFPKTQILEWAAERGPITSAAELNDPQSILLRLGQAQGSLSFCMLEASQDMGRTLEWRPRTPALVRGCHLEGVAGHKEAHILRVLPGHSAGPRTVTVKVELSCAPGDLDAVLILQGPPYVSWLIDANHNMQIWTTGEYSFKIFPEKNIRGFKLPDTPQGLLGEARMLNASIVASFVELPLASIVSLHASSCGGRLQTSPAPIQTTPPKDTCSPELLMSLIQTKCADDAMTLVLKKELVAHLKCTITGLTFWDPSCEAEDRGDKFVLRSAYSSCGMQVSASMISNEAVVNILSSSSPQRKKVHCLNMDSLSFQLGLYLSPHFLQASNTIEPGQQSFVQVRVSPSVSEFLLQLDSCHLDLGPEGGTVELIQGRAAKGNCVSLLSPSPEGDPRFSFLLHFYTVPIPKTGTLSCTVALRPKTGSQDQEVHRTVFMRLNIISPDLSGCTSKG

In a further assay the target is Endoglin_23.
The target of the next assay is Endoglin_10.

B1: endoglin antibody clone Kro22 (humanized AB clone Kro22.2 / Kro22.6) (antibody, V domains shown)
VH: QVQLVQSGAEVKKPGASVKVSCKASGYTFTSYWMHWVRQAPGQGLEWIGNIYPGSGSTFYDEKFKGRATLTVDTSISTAYMELSRLRSDDTAVYYCTRRNYVTGFDYWGQGTTVTVSS
VL: DIQLTQSPSFLSASVGDRVTITCKSSQSVLYSSNQKNYLAWYQQKPGKAPKLLIYWASTRESGVPSRFSGSGSGTEFTLTISSLQPEDFATYYCHQYLSSYTFGQGTKLEIK
In the case of B1, the affinity with endoglin (CD105), expressed as Kd, was 2.44 nM.

B2: Endoglin (receptor)
chain: T1 chain
For B2, the Kd (usually the constant that tells how readily two partners part at equilibrium) in the assay with Endoglin_23 is 64 nM; with Endoglin_10, 23.5 nM.
